The results in this text go back to the Human Domainome abundance scans (Beltran et al. 2025).

± gives the uncertainty stated by the source.

The labels stand for the following.
B1: Steroid hormone receptor ERR2, residues 100 to 176; numbered along this chain, O95718 (parent)
chain: KRLCLVCGDIASGYHYGVASCEACKAFFKRTIQGNIEYSCPATNECEITKRRRKSCQACRFMKCLKVGMLKEGVRLD

The data set covers variants of B1. The experiment in a line: abundance fitness (aPCA) (normalised: wild type 0, dead -1); higher = more abundant; growth selection in yeast, the domain comes from the species named. The note with it: Homo sapiens.
Take A42H: the abundance fitness is -0.445 ± 0.13. Then A42D, with 0.045 ± 0.065. Then A42G, with -0.025 ± 0.037; and K50L, with -0.088 ± 0.063; and K50V, with 0.118 ± 0.062. Then K50C, with -0.51 ± 0.2; and K50M, with 0.098 ± 0.1; and K50N, with 0.071 ± 0.088.

With I10A, the abundance fitness worked out at 0.275 ± 0.046.

Regarding I10C, the abundance fitness is -0.058 ± 0.077. Then G8H, with -0.102 ± 0.1.

In the case of G8W, the abundance fitness was -0.374 ± 0.071. For G8E the value was 0.006 ± 0.06. G73Q: the abundance fitness amounted to 0.046 ± 0.072.

Turning to G73I, the abundance fitness was -0.441 ± 0.19.

As for G73Y, the abundance fitness is -0.6 ± 0.22.

On to G73R, for which the abundance fitness was -0.056 ± 0.043. Consider G73N, for which the abundance fitness was -0.107 ± 0.11. For F61P the value was -1.29 ± 0.38. On to F61E, for which the abundance fitness is -0.892 ± 0.17. As to F61T, the abundance fitness is -0.759 ± 0.15. For the variant K71M, the abundance fitness was -0.063 ± 0.061. For K71T the value was -0.106 ± 0.075; for K71W, -0.242 ± 0.058; for K71F, -0.305 ± 0.11. Then E47G, with -0.165 ± 0.045; and E47Q, with -0.083 ± 0.069; and R60E, with -0.764 ± 0.1. Then R60V, with -0.098 ± 0.044; and R60L, with 0.183 ± 0.042. On to I32Q, for which the abundance fitness was -0.422 ± 0.082. For I32M the value was -0.47 ± 0.096. Take I32L: the abundance fitness was -0.362 ± 0.059. Then C46L, with -0.803 ± 0.1. Then C46H, with -0.308 ± 0.2; and C46N, with -0.735 ± 0.2. For C46G the value was -0.679 ± 0.073. Consider C46A, for which the abundance fitness was -0.888 ± 0.14. Then T49D, with 0.118 ± 0.11; and T49N, with 0.015 ± 0.11.

With T49V, the abundance fitness was -0.138 ± 0.073. For T49Q, the abundance fitness is -0.332 ± 0.15.

Consider T49H, for which the abundance fitness is -0.523 ± 0.17.

In the case of E72A, the abundance fitness is -0.088 ± 0.061.

On to E72C, for which the abundance fitness was -0.262 ± 0.089. For E72Y the value was -0.501 ± 0.15; for E72Q, -0.16 ± 0.075.

Turning to E72R, the abundance fitness was -0.355 ± 0.057.

Turning to T31N, the abundance fitness was -0.546 ± 0.35.

With T31E, the abundance fitness was -0.744 ± 0.12. Take T31F: the abundance fitness is -1.1 ± 0.43. Consider T31W, for which the abundance fitness is -0.925 ± 0.11.

With T31S, the abundance fitness is -0.175 ± 0.054.

As to C21R, the abundance fitness was -0.761 ± 0.075. For C21S the value was -0.532 ± 0.077; for C21V, -0.818 ± 0.09; for C21F, -1.04 ± 0.37. Consider G68A, for which the abundance fitness is -0.777 ± 0.098. Then G68K, with -0.454 ± 0.099; and L70C, with -0.098 ± 0.073.

L70P: the abundance fitness was -0.044 ± 0.091. L70F: the abundance fitness was -0.066 ± 0.073. Consider M69D, for which the abundance fitness is -0.694 ± 0.15. For M69N the value was -0.642 ± 0.17; for M69K, -0.931 ± 0.18. Turning to M69E, the abundance fitness was -0.57 ± 0.1. Then M69I, with -0.581 ± 0.2; and M69P, with -0.782 ± 0.17. For R30Q the value was 0.109 ± 0.057; for R30L, -0.466 ± 0.061; for R30E, 0.125 ± 0.049.

Consider R30F, for which the abundance fitness is -0.763 ± 0.19. For the variant R30D, the abundance fitness is -0.255 ± 0.16. As for R30T, the abundance fitness was -0.193 ± 0.087. Take R30A: the abundance fitness was -0.312 ± 0.065. For R30C the value was -0.573 ± 0.12; for R2F, 0.16 ± 0.13; for R2V, -0.228 ± 0.066. For R2D the value was 0.125 ± 0.1; for R2L, -0.136 ± 0.056. Consider R2W, for which the abundance fitness was -0.338 ± 0.082. Then R2P, with -0.502 ± 0.19. On to R2Y, for which the abundance fitness was 0.014 ± 0.11. In the case of R2M, the abundance fitness was -0.074 ± 0.067. Then R2T, with -0.263 ± 0.07. C4G: the abundance fitness was -0.696 ± 0.083. As for C4L, the abundance fitness was -0.8 ± 0.11. As for C4M, the abundance fitness is -0.72 ± 0.14. For C4E the value was -0.634 ± 0.12; for S20W, -0.052 ± 0.047; for S20A, 0.353 ± 0.038. For S20G the value was 0.282 ± 0.032; for S55P, 0.257 ± 0.069. For R75A the value was 0.035 ± 0.046.

On to R75N, for which the abundance fitness is -0.074 ± 0.1.

With R75D, the abundance fitness stood at 0.04 ± 0.07. For I36H the value was -0.167 ± 0.11; for I36W, -0.231 ± 0.053. Then I36Y, with -0.235 ± 0.09; and I36R, with -0.26 ± 0.043; and I36N, with -0.185 ± 0.13.

With I36D, the abundance fitness was -0.062 ± 0.077. In the case of I36A, the abundance fitness is -0.032 ± 0.048. For R53T, the abundance fitness was found to be 0.063 ± 0.065. On to K54N, for which the abundance fitness stood at 0.175 ± 0.086.

On to K54R, for which the abundance fitness came to 0.008 ± 0.044.

As for K54G, the abundance fitness amounted to 0.155 ± 0.043.

Regarding M62P, the abundance fitness was -1.05 ± 0.21. For M62D the value was -0.057 ± 0.064; for M62S, 0.148 ± 0.045. For A58K the value was -0.089 ± 0.065. For A58P the value was -0.61 ± 0.14.

In the case of A58Q, the abundance fitness was -0.145 ± 0.06.

In the case of C24K, the abundance fitness is -1.07 ± 0.2.

With C24V, the abundance fitness was -0.906 ± 0.084. Take C24Y: the abundance fitness was -0.837 ± 0.2. Then C24L, with -0.787 ± 0.071. Turning to Y16M, the abundance fitness was -0.239 ± 0.074.

For the variant Y16T, the abundance fitness was -0.418 ± 0.059. Then Y16L, with -0.332 ± 0.046.

With L5M, the abundance fitness was -0.139 ± 0.067. On to L5N, for which the abundance fitness is -0.246 ± 0.083. Then A23G, with 0.321 ± 0.035. For A23Q the value was -0.039 ± 0.064; for L65F, -0.433 ± 0.12; for L65S, -0.442 ± 0.071. For L65Q, the abundance fitness was -0.102 ± 0.062. Then L65M, with -0.175 ± 0.071; and L65V, with -0.082 ± 0.044. For the variant L65W, the abundance fitness was -0.697 ± 0.095. In the case of L65D, the abundance fitness was -0.548 ± 0.15. In the case of C64A, the abundance fitness was -0.301 ± 0.056.

In the case of C64E, the abundance fitness was -0.561 ± 0.092.

For the variant C64W, the abundance fitness is -0.531 ± 0.083. Regarding Q33D, the abundance fitness is -0.081 ± 0.082. On to Q33F, for which the abundance fitness was -0.577 ± 0.22. As to Q33M, the abundance fitness is -0.279 ± 0.087. As for Q33L, the abundance fitness was -0.146 ± 0.051.

Take Q33I: the abundance fitness was -0.697 ± 0.22. Then H15T, with -0.356 ± 0.094; and H15Q, with -0.097 ± 0.13; and H15G, with -0.068 ± 0.048. For H15E the value was -0.045 ± 0.085. For H15N the value was -0.143 ± 0.077; for A19F, -0.326 ± 0.14; for A19M, -0.117 ± 0.055.

On to A19N, for which the abundance fitness was 0.005 ± 0.085. For A19E the value was 0.043 ± 0.05. Then K1S, with -0.295 ± 0.1. Then K1L, with -0.67 ± 0.18; and K1V, with -0.334 ± 0.087; and K1C, with -0.432 ± 0.16. As for F28H, the abundance fitness was -0.748 ± 0.18. For F28Q, the abundance fitness is -0.761 ± 0.14. Then F28K, with -0.694 ± 0.11; and D9I, with -0.369 ± 0.15; and D9L, with -0.454 ± 0.067. As to D9F, the abundance fitness was -0.492 ± 0.14. For the variant D9P, the abundance fitness is -0.894 ± 0.25. Turning to C40E, the abundance fitness is -0.726 ± 0.11. Take K66V: the abundance fitness was -0.241 ± 0.059.

In the case of K66D, the abundance fitness was -0.103 ± 0.094.

Consider K66M, for which the abundance fitness came to 0.074 ± 0.066. Then K66S, with -0.011 ± 0.049; and G13P, with -0.393 ± 0.18. As to G13D, the abundance fitness is -0.02 ± 0.092.

Consider G13S, for which the abundance fitness is -0.555 ± 0.12.
